Assay results as given in patent US10865391B2, “Glutamate dehydrogenase mutants and their application in preparation of L-phosphinothricin” (ZHEJIANG UNIVERSITY, priority 2018, dated 2020).
Where a chain is given by its changes, count along the chain named. In names and notes the source's numbering stands.

B1: CgGluDH: wild type glutamate dehydrogenase from Corynebacterium glutamicum, NP_601279.1, NADPH-specific (protein, UniProt P31026 1-447, looked up)
NADP-specific glutamate …: MTVDEQVSNYYDMLLKRNAGEPEFHQAVAEVLESLKIVLEKDPHYADYGLIQRLCEPERQLIFRVPWVDDQGQVHVNRGFRVQFNSALGPYKGGLRFHPSVNLGIVKFLGFEQIFKNSLTGLPIGGGKGGSDFDPKGKSDLEIMRFCQSFMTELHRHIGEYRDVPAGDIGVGGREIGYLFGHYRRMANQHESGVLTGKGLTWGGSLVRTEATGYGCVYFVSEMIKAKGESISGQKIIVSGSGNVATYAIEKAQELGATVIGFSDSSGWVHTPNGVDVAKLREIKEVRRARVSVYADEVEGATYHTDGSIWDLKCDIALPCATQNELNGENAKTLADNGCRFVAEGANMPSTPEAVEVFRERDIRFGPGKAANAGGVATSALEMQQNASRDSWSFEYTDERLQVIMKNIFKTCAETAAEYGHENDYVVGANIAGFKKVADAMLAQGVI
B2: CgGluDH-V376A: CgGluDH mutant V376A, SEQ ID NO. 4 (protein)
chain: B1 NADP-specific glutamate … with V376A
modifications: Corynebacterium glutamicum glutamate dehydrogenase mutant
B3: CgGluDH-A166G: CgGluDH mutant A166G, SEQ ID NO. 3 (protein)
chain: B1 NADP-specific glutamate … with A166G
modifications: Corynebacterium glutamicum glutamate dehydrogenase mutant
B4: LsGluDH-A144G: LsGluDH mutant A144G, SEQ ID NO. 15 (protein)
chain: MSENLNLFTSTQDVIQDALNKLGYDEAMYELLKEPLRMLQVRIPVKMDDGTTKVFTGYRAQHNDAVGPTKGGVRFHPQVSEEEVKALSMWMTLKCGIVDLPYGGGKGGVICDPRQMSMGEIERLSRGYVRAVSQIVGPTKDIPGPDVFTNAQIMAWMMDEYSRMDEFNSPGFITGKPLVLGGSQGRDRATAQGVTIVIEEAAKKRGIDIKGARVVIQGFGNAGSFLAKFMHDLGAKVIGISDAYGALHDPEGLDIDYLLDRRDSFGTVTTLFENTISNKELLELDCDILVPAAIENQITADNAHNIKADIVVEAANGPTTAEATKILTERGILLVPDVLASAGGVTVSYFEWVQNNQGYYWTEEEVEERLYKKMVEAFDNVYTTATTRNINMRLAAYMVGVRRTAEASRFRGWV
modifications: Lysinibacillus sphaericus glutamate dehydrogenase mutant
B5: BmGluDH-A156G: BmGluDH mutant A156G, SEQ ID NO. 13 (protein)
chain: MVADKMQDSKNSQEEKHDVLKSTQTVIHKALEKLGYPDEVYELLKEPLRMMTVKIPVRMDDGSVKIFTGHRAQHNDAVGPTKGGIRFHPNVTEKEVKALSIWMSLKCGIVDLPYGGGKGGIVCDPRNMSFGELERLSRGYVRAISQIVGPTKDIPGPDVFTNSQIMAWMMDEYSRIDEFNSPGFITGKPLVLGGSHGRETATAKGVTICIREAAKKRGIELQGARVVVQGFGNAGSFLAKFMHDAGAKIVGISDAYGALHDPNGLDIDYLLDRRDSFGTVTKLFNNTISNKELLELDCDILVPAAIENQITEENAHNIQASIVVEAANGPTTLEATRILSERGILLVPDVLASAGGVTVSYFEWVQNNQGYYWTEEEVEEKLEKVMVKSFNNIYETSTTRKVDMRLAAYMIGVRKMAEGSRFRGWI
modifications: Bacillus megaterium glutamate dehydrogenase mutant
B6: PeGluDH-V375A: PeGluDH mutant V375A, SEQ ID NO. 6 (protein)
chain: MIESVDHFLARLQQRDPAQPEFHQAVEEVLRSLWPFLEQNPHYLEAGILERMVEPERAVLFRVSWVDDQGKVQVNRGYRIQMSSAIGPYKGGLRFHPSVNLGVLKFLAFEQVFKNSLTSLPMGGGKGGSDFDPKGKSDAEVMRFCQAFMSELYRHIGADLDVPAGDIGVGAREIGFLFGQYKRLANQFTSVLTGKGMTYGGSLIRPEATGYGCVYFAEEMLKRQEQRIDGRRVAISGSGNVAQYAARKVMDLGGKVISLSDSEGTLFCEAGLTDEQWDALMELKNVKRGRISELAGRFGLEFRKGQTPWSLACDIALPCATQNELNADDARTLLRNGCICVAEGANMPTTLDAVDIFIEAGILYAPGKASNAGGAAVSGLEMSQNAMRLLWTAGEVDSKLHHIMQSIHHVCVHYGEEADGRINYVKGANIAGFVKVADAMLAQGVV
modifications: Pseudomonas entomophila glutamate dehydrogenase mutant
B7: PeGluDH-A164G: PeGluDH mutant A164G, SEQ ID NO. 5 (protein)
chain: B6 chain with A164G, A375V
modifications: Pseudomonas entomophila glutamate dehydrogenase mutant
B8: BsGluDH-A154G: BsGluDH mutant A154G, SEQ ID NO. 11 (protein)
chain: MSAKQVSKDEEKEALNLFLSTQTIIKEALRKLGYPGDMYELMKEPQRMLTVRIPVKMDNGSVKVFTGYRSQHNDAVGPTKGGVRFHPEVNEEEVKALSIWMTLKCGIANLPYGGGKGGIICDPRTMSFGELERLSRGYVRAISQIVGPTKDIPGPDVYTNSQIMAWMMDEYSRLREFDSPGFITGKPLVLGGSQGRETATAQGVTICIEEAVKKKGIKLQNARIIIQGFGNAGSFLAKFMHDAGAKVIGISDANGGLYNPDGLDIPYLLDKRDSFGMVTNLFTDVITNEELLEKDCDILVPAAISNQITAKNAHNIQASIVVEAANGPTTIDATKILNERGVLLVPDILASAGGVTVSYFEWVQNNQGYYWSEEEVAEKLRSVMVSSFETIYQTAATHKVDMRLAAYMTGIRKSAEASRFRGWV
modifications: Bacillus subtilis glutamate dehydrogenase mutant
B9: LsGluDHp-V386A: LsGluDHp mutant V386A, SEQ ID NO. 8 (protein)
chain: MTITTVSNEQLAKEYVDGVFEQLKQQNCHQAEFLQAAEEIFISLVPVFVQHPEYIKANILSRIVEPDRIISFRVAWQDDHNQVQVNRGYRVQYSNVMGPYKGGLRFHPSVNESIIKFLGFEQIFKNALTGQPIGGGKGGSNFDPKGKSDSEIMRFCQAFMTELYRHIGPDVDVPAGDIGVGAREVGYLWGQYKRLTKASESGVLTGKTPGYGGSLARKEATGYGTVYFVNEMLKDVNDSFEGKTVVVSGSGNVSTYAIEKAQQYGAKVVACSDSSGYIYDPEGLDLDVIKEIKEVKGDRISTYVSYRPNATFTNGCTGIWTIPCDIALPCATQNEINGESARTLISNGVKAIGEGANMPSDLEAINEFLNAGVLFGPAKAANAGGAAVSALEMAQDSSRVFWSFEEVDAKLHQIMKDIYSDSKAAAEKYGFPGNLVMGANIAGFIKVADGMLTEGIY
modifications: Lysinibacillus sphaericus glutamate dehydrogenase mutant
B10: GsGluDH-A153G: GsGluDH mutant A153G, SEQ ID NO. 9 (protein)
chain: MAADKHTEEKGQQDDVLASTQIVIHRALEKLGYPEEVYELLKEPIRVLTVRIPVRMDDGSVKIFTGYRAQHNDAVGPTKGGVRFHPDVTEREVKALSIWMSLKCGIVDLPYGGGKGGIVCDPRTMSFRELERLSRGYVRAISQIVGPTKDIPGPDVFTNSQIMAWMMDEYSRIREFDSPGFITGKPLVLGGSHGRETATAKGVTICIREAAKKRGLSLEGARVVVQGFGNAGSYLAKFLHDAGAKVVGISDVYGALYDPNGLDIDYLLERRDSFGTVTKLFKNTISNKELLELDCDILVPAAIENQITAENAPRIKASIVVEAANGPTTLEATEILTQRGILLVPDVLASAGGVTVSYFEWVQNNQGYYWTEEEVEQRLEKVMVKAFNNVYEMAQTRRVDMRLAAYMVGVRKMAEACRFRGWV
modifications: Geobacillus stearothermophilus glutamate dehydrogenase mutant

Assay: Standard enzyme activity measurement toward PPO, crude enzyme (per volume fermentation broth)
Format: biochemical
Conditions: toward PPO; for Fold change: enzyme activity of mutant versus wild type
Protocol: The preserved recombinant E. coli is streaked onto the plate for activation. Single colonies are picked and inoculated into 5 mL LB liquid medium containing 50 μg/mL kanamycin and cultured at 37° C. for 12 h. The culture is transferred to 50 mL fresh LB liquid medium containing 50 μg/mL kanamycin at a 2% inoculum, and then incubated at 37° C. until the OD600 reaches 0.6; after that, add IPTG to a final concentration of 0.5 mM, and then proceed with induction culture under the temperature of 18° C. for 16 h.
After the cultivation, the culture is centrifuged at 10000 rpm for 10 min; discard supernatant, and collect cells. The harvested cells are washed for 2 times using pH 7.5 50 mM phosphate buffer. After that, the cells are re-suspend into the pH 7.5 phosphate buffer and disrupted ultrasonically (400W for 30 times, Ultrasonic time is 3 s, and the interval is 7 s). The cell disrupted solution is centrifuged at 12000 g for 5 min at 4° C. to remove the precipitate, and the supernatant obtained is the crude enzyme containing recombinant glutamate dehydrogenase
The standard enzyme activity measurement system: Appropriate amount of enzyme, 100 mM substrate, 10 mM coenzyme (NADH or NADPH), 500 mM NH4^+ ((NH4)2SO4); total system volume is up to 400 μL; reaction medium is pH 7.5 phosphate buffer. 35° C. reaction for 10 min; after that, add 40 uL 5 M NaOH to terminate reaction.
Definition of enzyme activity unit: The quantity of enzyme as required by generation of 1 μmol L-phosphinothricin per minute under standard reaction conditions.
Proceed with induction culture of constructed mutants, and prepare crude enzyme solution.

[1] = crude enzyme, standard system, N.D. = no detectable activity

Row | Molecule | Enzyme activity of wild type (U/mL) [1] [U/mL] | Fold change | Enzyme activity of mutants (U/mL) [1] [U/mL]
1 | B1 | 0.011 |  | 
2 | B2 |  | 225 | 2.48
3 | B3 |  | 31 | 0.34
4 | B4 |  |  | 1.69
5 | B5 |  |  | 0.34
6 | B6 |  | 107 | 11.06
7 | B7 |  | 110 | 11.29
8 | B8 |  |  | 0.50
9 | B9 |  | 588 | 12.34
10 | B10 |  |  | 0.04
